Measured values from PMC12392863, “Natural Design of a Stabilized Cross‐β Fold: Structure of the FuA FapC from Pseudomonas Sp. UK4 Reveals a Critical Role for Stacking of Imperfect Repeats” (Advanced Materials (Deerfield Beach, Fla.), 2025).

Experiments:
[1] = target: FapC from Pseudomonas aeruginosa PAO1, wild type (Pseudomonas aeruginosa PAO1); experiment: seeded ThT fibrillation kinetics, global fit with AmyloFit; 5 µM FapC UK4 monomer with 0-10% v/v sonicated fibril seeds of UK4, PAO1, Pf5 or F1 FapC; 40 µM ThT, 50 mM Tris/HCl pH 7.4, 37 °C, no shaking; constants of monomer addition to (k+) and release from (Koff) fibrils; time in hours
[2] = target: FapC from Pseudomonas fluorescens Pf5, wild type (P. fluorescens Pf5); experiment: as above
[3] = target: FapC from Pseudomonas putida F1, wild type (Pseudomonas putida F1); experiment: as above
[4] = target: FapC from Pseudomonas putida F1, wild type (Pseudomonas putida F1); experiment: formic acid dissolution of fibrils with SDS-PAGE; mature fibrils in 0-100% formic acid, 30 min, room temperature; centrifuged; released monomer in the supernatant on SDS-PAGE, normalised to 100% FA
[5] = target: FapC from P. fluorescens Pf5, wild type (P. fluorescens Pf5) (UniProt P0DXF5); experiment: as above
[6] = target: the molecule itself; experiment: ThT fluorescence fibrillation kinetics; self-assembly into amyloid without seeds; 15 µM FapC (wt or mutant; wt also 1-15 µM), 50 mM Tris/HCl pH 7.4, 40 µM ThT, 37 °C, no shaking, followed for 120 h

“FapC from Pseudomonas sp. UK4, wild type (from UniProt P0DXF5 25-250) (natural protein)” gave a koff [1] of 3.94e-14 s⁻¹, a koff [2] of 9.11e-13 s⁻¹ and a koff [3] of 1.96e-15 s⁻¹.

With “FapC from Pseudomonas putida F1, wild type (natural protein)” the formic acid needed to dissolve half of the fibrils [4] was 70 % FA.

In the case of “FapC from P. fluorescens Pf5, wild type (from UniProt P0DXF5 25-250) (natural protein)”, the formic acid needed to dissolve half of the fibrils [5] is reported as 70 % FA.

B1: FapC UK4 Asn200Ala (natural protein, Pseudomonas sp. UK4)
chain: GPAEKWKPTPAPTGTVAAAVTDTQVSKDNKFDDTKTLNNAGANGSLSNSKGNLGANIAAGSGNQQDNAAAITSSAGDAATVFAVADIYQESKDNKFTNKGTQNNALLNNSANNSSGNVGVNVAAGQGNQQKNNLAIVTADGKNVAAASNTEQVSLDNHFLNEASSKHSYKPQYVVANAGLLNSANNASGNIGVNVAAGAGNQQSNTLTLGSGCTVCAAGTGSKLAF
notes: FapC, Pseudomonas sp; UK4, point mutant made on the FapC UK4 plasmid; Same construct as m1 but for the mutation; source: E. coli BL21 (DE3), purified (Ni-NTA in 7.5 M guanidine hydrochloride), desalted
B1: binds [6].

B2: FapC UK4 N145A (natural protein, Pseudomonas sp. UK4)
chain: GPAEKWKPTPAPTGTVAAAVTDTQVSKDNKFDDTKTLNNAGANGSLSNSKGNLGANIAAGSGNQQDNAAAITSSAGDAATVFAVADIYQESKDNKFTNKGTQNNALLNNSANNSSGNVGVAVAAGQGNQQKNNLAIVTADGKNVAAASNTEQVSLDNHFLNEASSKHSYKPQYVVNNAGLLNSANNASGNIGVNVAAGAGNQQSNTLTLGSGCTVCAAGTGSKLAF
notes: as for B1
B2: binds [6].

B3: FapC UK4 Gly75Pro (natural protein, Pseudomonas sp. UK4)
chain: GPAEKWKPTPAPTGTVAAAVTDTQVSKDNKFDDTKTLNNAGANGSLSNSKPNLGANIAAGSGNQQDNAAAITSSAGDAATVFAVADIYQESKDNKFTNKGTQNNALLNNSANNSSGNVGVNVAAGQGNQQKNNLAIVTADGKNVAAASNTEQVSLDNHFLNEASSKHSYKPQYVVNNAGLLNSANNASGNIGVNVAAGAGNQQSNTLTLGSGCTVCAAGTGSKLAF
notes: as for B1
B3: binds [6].

B4: FapC UK4 Asn87Ala (natural protein, Pseudomonas sp. UK4)
chain: GPAEKWKPTPAPTGTVAAAVTDTQVSKDNKFDDTKTLNNAGANGSLSNSKGNLGANIAAGSGAQQDNAAAITSSAGDAATVFAVADIYQESKDNKFTNKGTQNNALLNNSANNSSGNVGVNVAAGQGNQQKNNLAIVTADGKNVAAASNTEQVSLDNHFLNEASSKHSYKPQYVVNNAGLLNSANNASGNIGVNVAAGAGNQQSNTLTLGSGCTVCAAGTGSKLAF
notes: FapC, Pseudomonas sp; UK4, point mutant made on the FapC UK4 plasmid; Same construct as m1 but for the mutation; also called Asn87 mutant; source: E. coli BL21 (DE3), purified (Ni-NTA in 7.5 M guanidine hydrochloride), desalted
B4: binds [6].

B5: FapC UK4 Gly84Ala (natural protein, Pseudomonas sp. UK4)
chain: GPAEKWKPTPAPTGTVAAAVTDTQVSKDNKFDDTKTLNNAGANGSLSNSKGNLGANIAAASGNQQDNAAAITSSAGDAATVFAVADIYQESKDNKFTNKGTQNNALLNNSANNSSGNVGVNVAAGQGNQQKNNLAIVTADGKNVAAASNTEQVSLDNHFLNEASSKHSYKPQYVVNNAGLLNSANNASGNIGVNVAAGAGNQQSNTLTLGSGCTVCAAGTGSKLAF
notes: FapC, Pseudomonas sp; UK4, point mutant made on the FapC UK4 plasmid; Same construct as m1 but for the mutation; also called G84A; source: E. coli BL21 (DE3), purified (Ni-NTA in 7.5 M guanidine hydrochloride), desalted
B5: binds [6].

B6: FapC UK4 Asn229Ala (natural protein, Pseudomonas sp. UK4)
chain: GPAEKWKPTPAPTGTVAAAVTDTQVSKDNKFDDTKTLNNAGANGSLSNSKGNLGANIAAGSGNQQDNAAAITSSAGDAATVFAVADIYQESKDNKFTNKGTQNNALLNNSANNSSGNVGVNVAAGQGNQQKNNLAIVTADGKNVAAASNTEQVSLDNHFLNEASSKHSYKPQYVVNNAGLLNSANNASGNIGVNVAAGAGNQQSATLTLGSGCTVCAAGTGSKLAF
notes: as for B1
B6: binds [6].

B7: FapC UK4 Lys155Asp and Ser228Asp (natural protein, Pseudomonas sp. UK4)
chain: GPAEKWKPTPAPTGTVAAAVTDTQVSKDNKFDDTKTLNNAGANGSLSNSKGNLGANIAAGSGNQQDNAAAITSSAGDAATVFAVADIYQESKDNKFTNKGTQNNALLNNSANNSSGNVGVNVAAGQGNQQDNNLAIVTADGKNVAAASNTEQVSLDNHFLNEASSKHSYKPQYVVNNAGLLNSANNASGNIGVNVAAGAGNQQDNTLTLGSGCTVCAAGTGSKLAF
notes: FapC, Pseudomonas sp; UK4, double charge mutant made on the FapC UK4 plasmid; Same construct as m1 but for the mutations; also called cluster of four negative charges (Asp46, Asp90, Asp155, and Asp228); source: E. coli BL21 (DE3), purified (Ni-NTA in 7.5 M guanidine hydrochloride), desalted
B7: binds [6].

B8: FapC UK4 Asp90Lys and Ser228Lys (natural protein, Pseudomonas sp. UK4)
chain: GPAEKWKPTPAPTGTVAAAVTDTQVSKDNKFDDTKTLNNAGANGSLSNSKGNLGANIAAGSGNQQKNAAAITSSAGDAATVFAVADIYQESKDNKFTNKGTQNNALLNNSANNSSGNVGVNVAAGQGNQQKNNLAIVTADGKNVAAASNTEQVSLDNHFLNEASSKHSYKPQYVVNNAGLLNSANNASGNIGVNVAAGAGNQQKNTLTLGSGCTVCAAGTGSKLAF
notes: FapC, Pseudomonas sp; UK4, double charge mutant made on the FapC UK4 plasmid; Same construct as m1 but for the mutations; also called cluster of three positive charges (Lys90, Lys155, and Lys228); source: E. coli BL21 (DE3), purified (Ni-NTA in 7.5 M guanidine hydrochloride), desalted
B8: binds [6].

B9: FapC UK4 Q89A (natural protein, Pseudomonas sp. UK4)
chain: GPAEKWKPTPAPTGTVAAAVTDTQVSKDNKFDDTKTLNNAGANGSLSNSKGNLGANIAAGSGNQADNAAAITSSAGDAATVFAVADIYQESKDNKFTNKGTQNNALLNNSANNSSGNVGVNVAAGQGNQQKNNLAIVTADGKNVAAASNTEQVSLDNHFLNEASSKHSYKPQYVVNNAGLLNSANNASGNIGVNVAAGAGNQQSNTLTLGSGCTVCAAGTGSKLAF
notes: FapC, Pseudomonas sp; UK4, point mutant made on the FapC UK4 plasmid; Same construct as m1 but for the mutation; also called Gln89 mutant; source: E. coli BL21 (DE3), purified (Ni-NTA in 7.5 M guanidine hydrochloride), desalted
B9: binds [6].

B10: FapC UK4 Gln227Ala (natural protein, Pseudomonas sp. UK4)
chain: GPAEKWKPTPAPTGTVAAAVTDTQVSKDNKFDDTKTLNNAGANGSLSNSKGNLGANIAAGSGNQQDNAAAITSSAGDAATVFAVADIYQESKDNKFTNKGTQNNALLNNSANNSSGNVGVNVAAGQGNQQKNNLAIVTADGKNVAAASNTEQVSLDNHFLNEASSKHSYKPQYVVNNAGLLNSANNASGNIGVNVAAGAGNQASNTLTLGSGCTVCAAGTGSKLAF
notes: as for B1
B10: binds [6].

B11: FapC UK4 Gly75Ala (natural protein, Pseudomonas sp. UK4)
chain: GPAEKWKPTPAPTGTVAAAVTDTQVSKDNKFDDTKTLNNAGANGSLSNSKANLGANIAAGSGNQQDNAAAITSSAGDAATVFAVADIYQESKDNKFTNKGTQNNALLNNSANNSSGNVGVNVAAGQGNQQKNNLAIVTADGKNVAAASNTEQVSLDNHFLNEASSKHSYKPQYVVNNAGLLNSANNASGNIGVNVAAGAGNQQSNTLTLGSGCTVCAAGTGSKLAF
notes: as for B1
B11: binds [6].
